Values of other authors as cited in patent US20020168685A1, “Covalent chemical inducers of protein dimerization and their uses in high throughput binding screens” (priority 2001, published 2002).

Conditions: substrate nitrocefin

B1: E. cloacae P99 wt: wild-type E. cloacae P99 cephase (protein, UniProt P05364 21-381, looked up)
Beta-lactamase: TPVSEKQLAEVVANTITPLMKAQSVPGMAVAVIYQGKPHYYTFGKADIAANKPVTPQTLFELGSISKTFTGVLGGDAIARGEISLDDAVTRYWPQLTGKQWQGIRMLDLATYTAGGLPLQVPDEVTDNASLLRFYQNWQPQWKPGTTRLYANASIGLFGALAVKPSGMPYEQAMTTRVLKPLKLDHTWINVPKAEEAHYAWGYRDGKAVRVSPGMLDAQAYGVKTNVQDMANWVMANMAPENVADASLKQGIALAQSRYWRIGSMYQGLGWEMLNWPVEANTVVEGSDSKVALAPLPVAEVNPPAPPVKASWVHKTGSTGGFGSYVAFIPEKQIGIVMLANTSYPNPARVEAAYHILEALQ
% WT (percentage of wild-type kcat/Km as calculated in that experiment): 100%
Km: 25 ± 1 µM
kcat: 780 ± 30 s⁻¹
